Patent US20260258115A1 (MAPP BIOPHARMACEUTICAL, published 2026)
Numbering of substitutions follows the chain as printed.

B1: ADI-19422 (antibody, V domains shown)
VH: not shown
VL: QPVLTQPPSVSVAPGKTARITCGGNNIGSKSVHWYQQKPGQAPVLVVYDDSDRPSGIPERFSGSNSGNTATLTISRVEAGDEADYYCQVWDSSSDHWVFGGGTKLTVL
notes: full-length IgG
B2: ADI-19424 (antibody, V domains shown)
VH: EVQLLESGGGLVQPGGSLRLSCAASGFTVSSNYMSWVRQAPGKGLEWVSDIYSGGRTDYADSVKGRFTISRDNSKNTLDLQMNSLRAEDTAVYYCARETLGMDHWYFDLWGRGTLVTVSS
VL: B1 VL with V3G, S93T, W97P
notes: full-length IgG
B3: ADI-25567 (antibody, V domains shown)
VH: QVQLQQWGAGLLKPSETLSLTCAVYGGSFSGYYWSWIRQPPGKGLEWIGEINHSGSTNYNPSLKSRVTISVDTSKNQFSLKLSSVTAADTAVYYCARGLPRFGVVTPNWFDPWGQGTLVTVSS
VL: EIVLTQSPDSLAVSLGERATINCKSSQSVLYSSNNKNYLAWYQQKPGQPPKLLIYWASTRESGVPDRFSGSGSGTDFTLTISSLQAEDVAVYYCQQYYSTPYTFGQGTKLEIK
notes: full-length IgG
B4: ADI-19421 (antibody, V domains shown)
VH: EVQLLESGGGVVQPGRSLRLSCAASGFTFSSYGMHWVRQAPGKGLEWVAVISYDGSNKYYADSVKGRFTISRDNSKNTLYLQMNSLRAEDTAVYYCAKDIHHVLRFLDPDYWGQGTLVTVSS
VL: QSVLIQPASVSGFPGQSITISCTGTSSDVGGYNYVSWYQQHPGKAPKLMIYEVSNRPSGVSNRFSGSKSGNTASLTISGLQAEDEADYYCSSYTSSSTLVFGGGTKLTVL
notes: full-length IgG
B5: ADI-19425 (antibody, V domains shown)
VH: EVQLVESGGGLVKPGGSLRLSCAASGFTFSSYSMNWVRQAPGKGLEWVSSISSSSSYIYYADSVKGRFTISRDNAKNSLYLQMNSLRAEDTAVYYCARLGYCSGGSCHFDYWGQGTLVTVSS
VL: QPVLTQPPSVSGAPGQRVTISCTGSSSNIGAGYDVHWYQQLPGTAPKLLIYGNSNRPSGVPDRFSGSKSGTSASLAITGLQAEDEADYYCQSYDSSLSGFYVFGTGTKLTVL
notes: full-length IgG; also called Ab 140
B6: ADI-25562 (antibody, V domains shown)
VH: QVQLVESGGGLVKPGGSLRLSCAASGFTFSDYYMSWIRQAPGKGLEWVSYISSSSSYTNYADSVKGRFTISRDNAKNSLYLQMNSLRAEDTAVYYCARVGYSSSWYNYFDYWGQGTLVTVSS
VL: SYVLTQPPSVSGAPGQRVTISCTGSSSNIGAGYDVHWYQQLPGTAPKLLIYGNSNRPSGVPDRFSGSKSGTSASLAITGLQAEDEADYYCQSYDSSLSGPVFGGGTKLTVL
notes: full-length IgG; also called Ab 453
B7: ADI-19420 (antibody, V domains shown)
VH: EVQLLESGGGLVKPGGSLRLSCAASGFTFSSYSMNWVRQAPGKGLEWVSSISSSSSYIYYADSVKGRFTISRDNAKNSLYLQMNSLRAEDTAVYYCARVGWGYSYGYWFDPWGQGTLVTVSS
VL: B6 VL with S1Q, Y2S, P100V
notes: full-length IgG
B8: ADI-41469 (antibody, V domains shown)
VH: EVQLVESGGGVVQPGRSLRLSCAASGFTFSSYGMHWVRQAPGKGLEWVAVISYDGSFIKYADSMMGRFTISRDNSKNTLYLQMSSLRPEDTATYYCAKDALIPEYWGQGTLVTVSS
VL: QPVLTQPASVSGSPGQSITISCTGTSSDVGGYNYVSWYQKHPDKAPRVIIYEVSNRPSGVSNRFSGSKSGNTASLTISGLQAEDEADYYCCSYTSTSGVVFGGGTKLTVL
B9: ADI-41459 (antibody, V domains shown)
VH: QVQLVESGGGLVQPGGSLRLSCAASGFPFSAYGINWVRQAPGKGLEWVSYISSTSTTIKYADSVKGRFTISRDDAKNSLYLQLRSLRPEDTAVYYCAGGVWSGYYIDFWGQGTPVTVSS
VL: NFMLTQPQSVSESPGKTVTISCTRSSGSIGSNFVQWYQQRPGSSPTTVIYEDYQRPSGVPDRFSGSIDSSSNSASLTISGLKTEDEADYYCQSYDADMMVFGGGTKLTVL
notes: also called Ab 743; Antibody Number 743
B10: ADI-41455 (antibody, V domains shown)
VH: QVQLQESGPGLVKPSQTLSLTCSVSEGSVISGDYYWSWIRQSPGKGLEWLGYIHYSGSTYYNPSLKSRVTISVDTSKKQFSLKLSSVTAADTAVYYCARDLGCIGGVCSAYGLEHNYYFGMDVWGQGTTVTVSS
VL: EIVLTQSPATLSLSPGERATLSCRASQSVSSYLAWYQQKPGQAPRLLIYTASNRATGIPARFSGSGSGTDFTLTISSLEPEDFAVYYCQQRSSWPPYTFGQGTKLEIK
B11: ADI-41463 (antibody, V domains shown)
VH: QVQLVQSGAEVKKPGASVKVSCTASGYSFTDYDISWVRQAPGQGLEWMGWISAYNGNTNYAQKFQDRVTMNTDTSTNTAYMELRGLRSDDTAVYYCARNCYYGSGTCYIEDYYFDYWGQGTLVTVSS
VL: DIQMTQSPSSLSASVGDRVTITCRASQDIKNDLGWYQQKPGKPPKRLIYGASRSQSGVPSRFSGSGSGTDFTLTIYSLQPEDFATYYCLQHSDYPFTFGQGTRLEIK
notes: also called Ab 747; Antibody Number 747
B12: ADI-41468 (antibody, V domains shown)
VH: QVQLQQWGAGPLKSSETLSLTCEVYGGPFSGYSWSWIRQPPGKGLEWIGEINHSGSTNYNPSLKSRVSFSVDTSKNQFSLKLSSVTAADTAVYYCARGAGFCTSTSCPPGLYYYYGMDVWGHGTTVTVSS
VL: SYELTQPLSVSVALGQTARITCGGNNIESKNVHWYQQMPGLAPVMVIYRDTNRPSGIPERFSGSNSGNTATLTISRAQAGDEADYYCQVWDSGTVIFGGGTKLTVL
notes: also called Ab 752; Antibody Number 752
B13: ADI-41460 (antibody, V domains shown)
VH: QVTLKESGPALVKPTQTLTLTCTFSGFSLNTRGMCVSWVRQPPGKALEWLARIDWDDDKNYSTSLRTRLTISKDTSRNQVVLAMANMDPVDTATYYCARCARYDRSGYYVWYLDSWGQGTLVTVSS
VL: DIQMTQSPSSLSASVGDRVTITCRASQTIASYLNWYQQKPGKAPKLLIYVASTLQSGVPSRFSGSGSGTDFTLTISSLQPEDFATYYCQQSYSLTQWTFGQGTKVEIK
B14: ADI-41550 (antibody, V domains shown)
VH: QVQLVQSGAEVKMPGASVRVSCKASGYTLGSHGITWVRQAPGQGLEWMGWISANNFNTHYAQKFQGRVTMTTDTSTSTAYMELRSLRSDDTAVYYCAREVMGHMVETISFDYWGQGTLVTVSS
VL: B1 VL with K16Q, K30E, Y48H, S92F, S93T, S94P, W97P, L105V
B15: ADI-41464 (antibody, V domains shown)
VH: QVQLVESGPGLVRPSGTLSLTCTVSGDSVNSYRWSWIRQSPGKGLEWIGYISYSGETNYNPSLKSRVSISVGTSRYQFFLKLSSVTAADTATYYCARDKTTIFGVSHYYFGVDVWGQGTTVTVSS
VL: DIVMTQTPLSLPVTPGEPASISCRSSQSLLKSDGYNSLDWYLQRPGQSPQLLIYLGSNRASGVPARFSGSGSGTDFTLKISRVEAEDVGVYYCMQALQTPFTFGPGTKVEIK
B16: ADI-41456 (antibody, V domains shown)
VH: EVQLLESGGGLFHPGGSLTLSCVASGFTLSTYYMHWVRQAPGKGLVWVARINSDGGYTTYADSVKGRFTVSRDNAKNTLYLQMNSLRVEDTAVYYCAREWVEFDSWGQGTLVTVSS
VL: NFMLTQPHSVSASPGKTVTISCTRSSGNIASNYVQWYQQRPGSSPTTVITEDNQRPSGVPDRFSGSIDSSSNSASLTISGLKTEDEADYYCQSYDSSTYVFGTGTKLTVL
notes: also called Ab 740; Antibody Number 740
B17: ADI-41466 (antibody, V domains shown)
VH: QVQLVQSGAEVKKPGASVKVSCKASGYTFNFYYMHWVRQAPGQGLEWMGWINPKSGGTSYAQKFQGRVIMTGDTSISTTYMELSRLRSDDTAVYYCARADTGLELDVWGQGTTVTVSS
VL: QSALIQPASVSGSPGQSITISCTGTSSDVGGYNYVSWYQQHPGKAPKLILYDVSKRPSGVSNRFSGSKSGNTASLTISGLQAEDESDYFCSSYTRSNTVVFGGGTKVTVL
notes: also called Ab 750; Antibody Number 750
B18: ADI-41461 (antibody, V domains shown)
VH: QVQLVQSGAEVKKPGASVKVSCRASGYTFSSYDINWVRQATGQGLEWMGWMSPNSANTGYAQKFQGRVTMTRDTSINTAYMELSSLSSEDTAVYYCARFLGYCSGGSCYPGYGMDVWGQGTTVTVSS
VL: EIVLTQSPDSLAVSLGERATINCKSSQNVLYSSNNKDYLSWYQQKPGQPPKLLIYWASTRESGVPDRFSGSGSGTDFTLTINSLQAEDVAVYYCQQYYGTPYTFGQGTKLEIK

target: RSV F on RSV subtype A virus (mKate-RSV A2) (respiratory syncytial virus A2, UniProt P03420 26-574); assay: cell-based or functional assay

| Binder | Neut IC50 subtype A [µg/mL] |
| --- | --- |
| B1 | 0.73 |
| B2 | 0.08 |
| B3 | 0.33 |
| B4 | 10 |
| B5 | 0.02 |
| B6 | 1.18 |
| B7 | 0.55 |

target: RSV F on RSV subtype B virus (mKate-RSV B 18537) (respiratory syncytial virus B 18537, UniProt P13843 26-574); assay: cell-based or functional assay

| Binder | Neut IC50 subtype B [µg/mL] |
| --- | --- |
| B1 | 1.9 |
| B2 | 0.21 |
| B3 | 1.94 |
| B4 | 3.3 |
| B5 | 0.04 |
| B6 | 1.14 |
| B7 | 0.64 |

target: RSV F on RSV-A2 virus (Respiratory Syncytial Virus (RSV-A2), UniProt P03420 26-574); assay: cell-based or functional assay

| Binder | Neutralization IC50 (RSV subtype A) [µg/mL] |
| --- | --- |
| B8 | 0.35 |
| B9 | > 25 |
| B10 | > 25 |
| B11 | > 25 |
| B12 | > 25 |
| B13 | > 25 |
| B14 | > 25 |
| B15 | > 25 |
| B16 | > 25 |
| B17 | > 25 |
| B18 | > 25 |

target: T1, RSV prefusion F (preF), subtype B (respiratory syncytial virus subtype B); assay: BLI, IgG
T1 construct: also called Prefusion subtype B

| Binder | Kd [nM] |
| --- | --- |
| B1 | 10.8 |
| B2 | 1.71 |
| B3 | 3.83 |
| B4 | 5.42 |
| B5 | 1.37 |
| B6 | 3.32 |
| B7 | 2.47 |

target: T2, RSV postfusion F (postF), subtype A (respiratory syncytial virus subtype A, UniProt P03420 26-513); assay: BLI
T2 construct: also called Postfusion subtype A; F deltaFP

| Binder | binding result |
| --- | --- |
| B1 | no binding |
| B2 | no binding |
| B3 | no binding |
| B4 | no binding |
| B5 | no binding |
| B6 | no binding |
| B7 | no binding |

target: RSV postfusion F (postF), F ΔFP (Respiratory Syncytial Virus, UniProt P03420 26-513); assay: BLI, IgG on anti-human IgG sensor, 100 nM antigen, 1:1 fit

| Binder | Kd [nM] |
| --- | --- |
| B8 | 0.345 |
| B9 | 0.343 |
| B10 | 0.638 |
| B11 | 0.485 |
| B12 | 0.344 |
| B13 | 0.632 |
| B14 | 25.7 |
| B15 | 0.313 |
| B16 | 0.267 |
| B17 | 0.383 |
| B18 | 0.548 |

target: RSV prefusion F (preF), DS-Cav1 (Respiratory Syncytial Virus, UniProt P03420 26-513); assay: as above

| Binder | Kd [nM] |
| --- | --- |
| B8 | 0.28 |
| B9 | 1.89 |
| B10 | 1.53 |
| B11 | 2.68 |
| B12 | 0.716 |
| B13 | 1.23 |
| B15 | 1.91 |
| B16 | 1.48 |
| B17 | 2.05 |
| B18 | 2.3 |
